Data published in patent US20070254831A1 (published 2007).
Read-outs that look alike come from different tables or passages of the source. One block for each binder: values may come before it. Numbered stars: 1 amine (or outer) side, 2 acyl side, 3 side chain; on linkers, the order of the positions; unused ones are H or OH. Bridge positions count the residues as written; N and C are the ends. Square brackets hold non-standard residues; d marks the D form. Ends that are not written are not given here. X2 = (3R)‑3‑amino‑1‑carboxymethyl‑valerolactam, O=C1[C@H](N[*:1])CCCN1CC(=O)[*:2]; NMeL = CN[C@@H](CC(C)C)C(=O)O; Pen = CC(C)(S)[C@H](N)C(=O)O; NMeA = CN[C@@H](C)C(=O)O

How the values were obtained:
soluble human FcRn [1] = target: T1, soluble human FcRn (human, UniProt P55899 24-297; P61769 21-119, biotinylated (Sulfo-NHS-LC-Biotin) in the ELISA; amine-coupled to CM5 chip in SPR); experiment: ELISA, competitor human IgG
T1 construct: also called shFcRn; biotinylated shFcRn
Protocol: (§1) The wells were coated with 100 μl/well of 1 μg/ml biotinylated-shFcRn in Buffer A. The plate was sealed and incubated at 37° C. for 2 hours. Afterwards, the plate washed with 200 μl/well of Buffer B (Buffer B: 100 mM MES pH 6, 150 mM NaCl, 0.5% BSA IgG-free (Jackson ImmunoResearch, West Grove, Pa.), 0.05% Tween-20). […] To allow for mixing, the plate was rocked for 2 minutes, sealed and incubated at 37° C. for 2 hours. […] The plate was covered, incubated for 30 minutes at room temperature and washed 4 times with 200 μl/well of ice-cold buffer B. SureBlue TMB substrate solution (100 μl/well, KPL, Gaithersburg, Md.) was added and the plate was allowed to incubate at room temperature until color developed, which took 5 to 10 minutes. Once color developed, 100 μl/well of TMB stop solution (KPL, Gaithersburg, Md.) was added and the absorbance was measured at 450 nm. The data was plotted as absorbance vs. peptide concentration to derive the inhibitory concentration 50% (IC₅₀) values.

soluble human FcRn [2] = target: T1, soluble human FcRn; experiment: ELISA, competitor human IgG; remark: listed apart in the source
Protocol: as §1

soluble human FcRn [3] = target: T1, soluble human FcRn; experiment: SPR, pH 6
Protocol: (§2) The following steps were performed to cross-link soluble human or cynomolgus FcRn to the dextran surface of a CM5 sensor chip (Biacore AB, Uppsala, Sweden) by an amine coupling reaction involving 1-ethyl-(3-dimethylaminopropyl)-carbodiimide hydrochloride (EDC) (Biacore AB, Uppsala, Sweden) and N-hydroxysuccinimide (NHS) (Biacore AB, Uppsala, Sweden) as recommended by Biacore (BIAapplications Handbook, version AB, section 4.2, Biacore AB, Uppsala, Sweden). […] Residual sites on the FcRn flow cell were blocked with 1 M ethanolamine hydrochloride pH 8.5 (Biacore AB, Uppsala, Sweden). A control flow cell was blocked with ethanolamine for reference subtraction. For analysis of the monomeric peptides, FcRn was coated to a final density of 4000-5000 response units (RU). For analysis of the peptide dimers, FcRn was coated to a density of 2000-2500 RU. All SPR measurements were performed using a BIACORE 3000 Instrument (Biacore AB Uppsala, Sweden). For measurements done at either pH 6 or pH 7.4, experiments were performed in 50 mM phosphate, 100 mM sodium chloride, 0.01% surfactant P20 (Biacore AB, Uppsala, Sweden).
(§3) Ten, 2-fold dilutions of the peptide were injected over the FcRn-CM5 chip at a rate of 20 μl/min for 2 min. The peptide was dissociated from the chip for 2.5 minutes with buffer. Any remaining peptide was removed from the chip with a 30 second injection of HBS-P buffer (Biacore AB, Uppsala, Sweden) at a rate of 30 μl/min. Sensorgrams were generated and analyzed using BiaEval software version 3.1 (Biacore AB, Uppsala, Sweden). The equilibrium RU observed for each injection was plotted against concentration. The equilibrium KD values were derived by analysis of the plots using the steady state affinity model included in the BiaEval software.

soluble human FcRn [4] = target: T1, soluble human FcRn; experiment: SPR, pH 7.4
Protocol: as §2, §3

soluble human FcRn [5] = target: T1, soluble human FcRn; experiment: ELISA, competitor human IgG; remark: listed apart in the source
Protocol: as §1

soluble human FcRn [6] = target: T1, soluble human FcRn; experiment: ELISA, competitor human IgG; remark: listed apart in the source
Protocol: as §1

soluble human FcRn [7] = target: T1, soluble human FcRn; experiment: SPR, pH 6; remark: listed apart in the source
Protocol: as §2, §3

soluble human FcRn [8] = target: T1, soluble human FcRn; experiment: ELISA, competitor human IgG; remark: listed apart in the source
Protocol: as §1

soluble human FcRn [9] = target: T1, soluble human FcRn; experiment: ELISA, competitor human IgG; remark: listed apart in the source
Protocol: as §1

soluble human FcRn [10] = target: T1, soluble human FcRn; experiment: SPR, pH 6; remark: listed apart in the source
Protocol: as §2, §3

soluble human FcRn [11] = target: T1, soluble human FcRn; experiment: ELISA, competitor human IgG; remark: listed apart in the source
Protocol: as §1

soluble human FcRn [12] = target: T1, soluble human FcRn; experiment: SPR, pH 6; remark: listed apart in the source
Protocol: as §2, §3

soluble human FcRn [13] = target: T1, soluble human FcRn; experiment: ELISA, competitor human IgG; remark: listed apart in the source
Protocol: as §1

B1: Peptide No. 201 (peptide)
peptide: QRFXTGHFGGLYPCNGP
modifications: Pen at 4; intrachain disulfide; C-terminal amide; N-termini joined by ethylene glycol-bis(succinic acid) linker
notes: N-terminally linked dimer
IC50 (soluble human FcRn [1]): 0.026 µM

B4: Peptide No. 99 (peptide)
peptide: RFXTGHFGGLYPC
modifications: Pen at 3; disulfide; C-terminal amide
IC50 (soluble human FcRn [5]): 2 µM
IC50 (soluble human FcRn [6]): 2 µM

B7: Peptide No. 144 (peptide)
peptide: RFXTGHFGPLYPCNGP
modifications: Pen at 3; D-Pro at 9; disulfide; C-terminal amide
IC50 (soluble human FcRn [5]): 1.5 µM

B9: Peptide No. 107 (peptide)
peptide: QRFDTGHFGGLYKNGP-NH2
modifications: lactam 4-13; N-terminus assumed
SMILES: CC(C)C[C@@H]1NC(=O)CNC(=O)CNC(=O)[C@H](Cc2ccccc2)NC(=O)[C@H](Cc2c[nH]cn2)NC(=O)CNC(=O)[C@H]([C@@H](C)O)NC(=O)[C@@H](NC(=O)[C@H](Cc2ccccc2)NC(=O)[C@H](CCCNC(=N)N)NC(=O)[C@@H](N)CCC(N)=O)CC(=O)NCCCC[C@@H](C(=O)N[C@@H](CC(N)=O)C(=O)NCC(=O)N2CCC[C@H]2C(N)=O)NC(=O)[C@H](Cc2ccc(O)cc2)NC1=O
IC50 (soluble human FcRn [8]): > 125 µM

B13: Peptide No. 178 (peptide)
peptide: RFXTGHFXLYPC
modifications: Pen at 3; X at 8 = 3-amino-2-oxo-1-piperidine-acetic acid (drawing CHEM-US-00080); disulfide; C-terminal amide
IC50 (soluble human FcRn [6]): 0.66 µM
Kd (soluble human FcRn [7]): 0.16 µM

B14: Peptide No. 101 (peptide)
peptide: QRF[Pen]TGHFGGIYPCNGP-NH2
modifications: disulfide 4-14; N-terminus assumed
SMILES: CC[C@H](C)[C@@H]1NC(=O)CNC(=O)CNC(=O)[C@H](Cc2ccccc2)NC(=O)[C@H](Cc2c[nH]cn2)NC(=O)CNC(=O)[C@H]([C@@H](C)O)NC(=O)[C@@H](NC(=O)[C@H](Cc2ccccc2)NC(=O)[C@H](CCCNC(=N)N)NC(=O)[C@@H](N)CCC(N)=O)C(C)(C)SSC[C@@H](C(=O)N[C@@H](CC(N)=O)C(=O)NCC(=O)N2CCC[C@H]2C(N)=O)NC(=O)[C@@H]2CCCN2C(=O)[C@H](Cc2ccc(O)cc2)NC1=O
IC50 (soluble human FcRn [9]): 3.4 µM
Kd (soluble human FcRn [10]): 0.34 µM

B15: Peptide No. 131 (peptide)
peptide: QRFXTGHFGGLYPENGP
modifications: Orn at 4; side-chain lactam bridge Orn 4-Glu 14; C-terminal amide
IC50 (soluble human FcRn [8]): 30 µM

B16: Peptide No. 115 (peptide)
peptide: QRF[Pen]TGHFGGFYPCNGP-NH2
modifications: disulfide 4-14; N-terminus assumed
SMILES: C[C@@H](O)[C@@H]1NC(=O)[C@@H](NC(=O)[C@H](Cc2ccccc2)NC(=O)[C@H](CCCNC(=N)N)NC(=O)[C@@H](N)CCC(N)=O)C(C)(C)SSC[C@@H](C(=O)N[C@@H](CC(N)=O)C(=O)NCC(=O)N2CCC[C@H]2C(N)=O)NC(=O)[C@@H]2CCCN2C(=O)[C@H](Cc2ccc(O)cc2)NC(=O)[C@H](Cc2ccccc2)NC(=O)CNC(=O)CNC(=O)[C@H](Cc2ccccc2)NC(=O)[C@H](Cc2c[nH]cn2)NC(=O)CNC1=O
IC50 (soluble human FcRn [9]): 4.1 µM
Kd (soluble human FcRn [10]): 0.4 µM

B18: Peptide No. 179 (peptide)
peptide: RFXTGHFXLYPC
modifications: Pen at 3; X at 8 = 3-amino-2-oxo-1-piperidine-acetic acid (drawing CHEM-US-00081); disulfide; C-terminal amide
IC50 (soluble human FcRn [6]): 7.2 µM
Kd (soluble human FcRn [7]): 0.67 µM

B20: Peptide No. 182 (peptide)
peptide: RFVTGHFXLYPA
modifications: X at 8 = 3-amino-2-oxo-1-piperidine-acetic acid (drawing CHEM-US-00094); linear; C-terminal amide
IC50 (soluble human FcRn [11]): 38 µM

B26: Peptide No. 127 (peptide)
peptide: QRFDTGHFGGLYPKN-NH2
modifications: lactam 4-14; N-terminus assumed
SMILES: CC(C)C[C@@H]1NC(=O)CNC(=O)CNC(=O)[C@H](Cc2ccccc2)NC(=O)[C@H](Cc2c[nH]cn2)NC(=O)CNC(=O)[C@H]([C@@H](C)O)NC(=O)[C@@H](NC(=O)[C@H](Cc2ccccc2)NC(=O)[C@H](CCCNC(=N)N)NC(=O)[C@@H](N)CCC(N)=O)CC(=O)NCCCC[C@@H](C(=O)N[C@@H](CC(N)=O)C(N)=O)NC(=O)[C@@H]2CCCN2C(=O)[C@H](Cc2ccc(O)cc2)NC1=O
IC50 (soluble human FcRn [8]): 7.6 µM

B27: Peptide No. 197 (peptide)
peptide: RFXTGHFXLYPC
modifications: Pen at 3; X at 8 = 5,5-bicyclic dipeptide mimic (drawing CHEM-US-00085); disulfide; C-terminal amide
Kd (soluble human FcRn [7]): 0.99 µM

More lines, now with the values ahead:

IC50 (soluble human FcRn [2]): 67 µM
Kd (soluble human FcRn [3]): 11 µM
B2: SEQ ID NO:22 (peptide)
peptide: FCTGHFGGLYPCNGP-NH2
modifications: disulfide 2-12 (inferred)

Kd (soluble human FcRn [4]): 73 µM
Kd (soluble human FcRn [3]): 6.1 µM
B3: SEQ ID NO:24 (peptide)
peptide: QRFCTGHFGGLYPCN-NH2
modifications: disulfide 4-14 (inferred)

IC50 (soluble human FcRn [6]): 1.1 µM
Kd (soluble human FcRn [7]): 0.145 µM
B5: Peptide No. 228 (peptide)
peptide: RF[Pen][NMeA]GHF[X2][NMeL]YPC-NH2
modifications: disulfide 3-12; N-terminus assumed
SMILES: CC(C)C[C@H]1C(=O)N[C@@H](Cc2ccc(O)cc2)C(=O)N2CCC[C@H]2C(=O)N[C@H](C(N)=O)CSSC(C)(C)[C@H](NC(=O)[C@H](Cc2ccccc2)NC(=O)[C@@H](N)CCCNC(=N)N)C(=O)N(C)[C@@H](C)C(=O)NCC(=O)N[C@@H](Cc2c[nH]cn2)C(=O)N[C@@H](Cc2ccccc2)C(=O)N[C@@H]2CCCN(CC(=O)N1C)C2=O

IC50 (soluble human FcRn [1]): 0.016 µM
B6: Peptide No. 288 (peptide)
peptide: RFXTGHFGGLYPCGG
modifications: Pen at 3; Sar at 9; NMeLeu at 10; intrachain disulfide; C-termini joined on a branching Lys
notes: C-terminally linked dimer

IC50 (soluble human FcRn [1]): 0.02 µM
B8: Peptide No. 287 (peptide)
peptide: RFXTGHFGGLYPCG
modifications: Pen at 3; Sar at 9; NMeLeu at 10; intrachain disulfide; C-termini joined on a branching Lys
notes: C-terminally linked dimer

IC50 (soluble human FcRn [2]): > 250 µM
B10: SEQ ID NO:20 (peptide)
peptide: TGHFGGLYP-NH2

IC50 (soluble human FcRn [2]): 239 µM
Kd (soluble human FcRn [3]): 34 µM
B11: SEQ ID NO:17 (peptide)
peptide: CTGHFGGLYPCNGP-NH2
modifications: disulfide 1-11 (inferred)

IC50 (soluble human FcRn [1]): 0.007 µM
B12: Peptide No. 279 (peptide)
peptide: RFXTGHFGGLYPC
modifications: Pen at 3; Sar at 9; NMeLeu at 10; intrachain disulfide; C-terminal amide; N-termini joined by Bis-dPEG6 diacid linker
notes: N-terminally linked dimer

IC50 (soluble human FcRn [9]): 1 µM
B17: Peptide No. 238 (peptide)
peptide: QRFXTGHFGGWYPCNGP
modifications: Pen at 4; Sar at 10; disulfide; C-terminal amide

IC50 (soluble human FcRn [2]): 110 µM
Kd (soluble human FcRn [4]): 320 µM
Kd (soluble human FcRn [3]): 20 µM
B19: SEQ ID NO:19 (peptide)
peptide: CTGHFGGLYPC-NH2
modifications: disulfide 1-11 (inferred)

Kd (soluble human FcRn [12]): 3.6 µM
IC50 (soluble human FcRn [13]): 60 µM
B21: Peptide No. 246 (peptide)
peptide: RFVTGHFG[dP]WYPA-NH2
modifications: N-terminus assumed
SMILES: CC(C)[C@H](NC(=O)[C@H](Cc1ccccc1)NC(=O)[C@@H](N)CCCNC(=N)N)C(=O)N[C@H](C(=O)NCC(=O)N[C@@H](Cc1c[nH]cn1)C(=O)N[C@@H](Cc1ccccc1)C(=O)NCC(=O)N1CCC[C@@H]1C(=O)N[C@@H](Cc1c[nH]c2ccccc12)C(=O)N[C@@H](Cc1ccc(O)cc1)C(=O)N1CCC[C@H]1C(=O)N[C@@H](C)C(N)=O)[C@@H](C)O

IC50 (soluble human FcRn [1]): 0.025 µM
B22: Peptide No. 280 (peptide)
peptide: RFXTGHFGGLYPC
modifications: not fully specified; Pen at 3; Sar at 9; NMeLeu at 10; intrachain disulfide; C-termini joined on the two amines of a branching Lys
notes: C-terminally linked dimer

Kd (soluble human FcRn [12]): 8 µM
IC50 (soluble human FcRn [13]): 100 µM
B23: Peptide No. 211 (peptide)
peptide: FVTGHFG[dP]WYPA-NH2
modifications: N-terminus assumed
SMILES: CC(C)[C@H](NC(=O)[C@@H](N)Cc1ccccc1)C(=O)N[C@H](C(=O)NCC(=O)N[C@@H](Cc1c[nH]cn1)C(=O)N[C@@H](Cc1ccccc1)C(=O)NCC(=O)N1CCC[C@@H]1C(=O)N[C@@H](Cc1c[nH]c2ccccc12)C(=O)N[C@@H](Cc1ccc(O)cc1)C(=O)N1CCC[C@H]1C(=O)N[C@@H](C)C(N)=O)[C@@H](C)O

IC50 (soluble human FcRn [9]): 2.8 µM
Kd (soluble human FcRn [10]): 0.14 µM
B24: Peptide No. 237 (peptide)
peptide: RFXTGHFGGWYPC
modifications: Pen at 3; disulfide; C-terminal amide

IC50 (soluble human FcRn [6]): 0.64 µM
Kd (soluble human FcRn [7]): 0.103 µM
B25: Peptide No. 205 (peptide)
peptide: RFXTGHFXLYPC
modifications: Pen at 3; X at 8 = 3(S)-3-amino-2-oxo-1-azepine acetic acid; disulfide; C-terminal amide

Kd (soluble human FcRn [4]): 26 µM
B28: SEQ ID NO:18 (peptide)
peptide: QRFCTGHFGGLYPC-NH2
modifications: disulfide 4-14 (inferred)
